Assay results as given in patent US20240024475A1 (CURE GENETICS, published 2024).
Blank lines part the entries; values can stand above or below the binder they belong to.

Biological target: T1, recombinant human CD70 protein (Acrobiosystems: CDL-H82Q9) (human, UniProt P32970 39-193)
T1 construct: Bought from Acrobiosystems; The whole natural entry is named; also called human CD70His fusion protein; recombinant human CD70 antigen having a C-terminal human IgG Fc tag
T1 sequence (looked up): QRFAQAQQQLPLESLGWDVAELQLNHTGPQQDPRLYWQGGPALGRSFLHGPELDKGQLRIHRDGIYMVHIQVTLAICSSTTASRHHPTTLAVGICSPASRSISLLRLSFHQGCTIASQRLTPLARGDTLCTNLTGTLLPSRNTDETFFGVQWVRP
Test: flow cytometry: CAR on CD70-knockout T cells stained with biotinylated human CD70 protein (100 µg/ml) and PE-Streptavidin
Method: The expression of the CAR targeting CD70 prepared in example 5 in T cells in each group was detected by fluorescence antibody staining and flow cytometry. The specific steps were as follows: CAR-T cells targeting CD70 with lentivirus infection for 48 h, T cells without lentivirus infection and T-KO cells without lentivirus infection were respectively collected by centrifugation; biotinylated human CD70 protein (100 μg/ml) (Acrobiosystems: CDL-H82Q9) was added; and the mixture was incubated at 4° C. in the dark for 30 min, and then washed once with PBS after the incubation. After resuspending in an appropriate volume of PBS, a second antibody PE-Streptavidin (BD Biosciences: 554061) was added to the cells, and the mixture was incubated at 4° C. in the dark for 20 min, washed once with PBS and then resuspended in an appropriate volume of PBS. Finally, the expression efficiency of the CAR targeting CD70 on the surface of the T cells in which CD70 was knocked out was detected using a flow cytometer.

B1: CD70KO-CAR-1E (receptor)
chimeric antigen receptor chain: EVQVVESGGGLVQAGGSLRLSCAASGFAFDDYAIGWFRQAPGKEQERVSCMSSSDGSTYYADSVKGRFTISSDNAKNTVYLQMNSLKPEDTAVYYCAAGVNYYREDGCPGALDYWGQGTQVTVSSTTTPAPRPPTPAPTIASQPLSLRPEACRPAAGGAVHTRGLDFACDIYIWAPLAGTCGVLLLSLVITLYCKRGRKKLLYIFKQPFMRPVQTTQEEDGCSCRFPEEEEGGCELRVKFSRSADAPAYKQGQNQLYNELNLGRREEYDVLDKRRGRDPEMGGKPRRKNPQEGLYNELQKDKMAEAYSEIGMKGERRRGKGHDGLYQGLSTATKDTYDALHMQALPPR
notes: The sheet names the CD70-knockout T cells that carry CD70-CAR-1E; also called CD70-CAR-1E
POS (% of cells in the CD70-PE positive gate): 63.9%

B2: CD70KO-CAR-1G (receptor)
chimeric antigen receptor chain: QLQLVESGGGLVQLGGSLTLSCTASGIIFNSDYVGWYRQAPGSDRELVALTSNMRTNYADSVEGRFTISRDNAKNTVYLQMNSLKPEDTAVYYCNVNRMTSYGPRDYWGQGTQVTVSSTTTPAPRPPTPAPTIASQPLSLRPEACRPAAGGAVHTRGLDFACDIYIWAPLAGTCGVLLLSLVITLYCKRGRKKLLYIFKQPFMRPVQTTQEEDGCSCRFPEEEEGGCELRVKFSRSADAPAYKQGQNQLYNELNLGRREEYDVLDKRRGRDPEMGGKPRRKNPQEGLYNELQKDKMAEAYSEIGMKGERRRGKGHDGLYQGLSTATKDTYDALHMQALPPR
notes: The sheet names the CD70-knockout T cells that carry CD70-CAR-1G; also called CD70-CAR-1G
POS (% of cells in the CD70-PE positive gate): 57.5%

B3: CD70KO-CAR-5A (receptor)
chimeric antigen receptor chain: EVQLVESGGGLVQAGGSLRLSCAASESIFNNYVMAWYRQPPGKQREAVAQISTDGSAYYQDRVKGRFTISRDNAKNLVNLQMSSLKPEDTAVYYCTAGLQYWGQGTQVTVSSTTTPAPRPPTPAPTIASQPLSLRPEACRPAAGGAVHTRGLDFACDIYIWAPLAGTCGVLLLSLVITLYCKRGRKKLLYIFKQPFMRPVQTTQEEDGCSCRFPEEEEGGCELRVKFSRSADAPAYKQGQNQLYNELNLGRREEYDVLDKRRGRDPEMGGKPRRKNPQEGLYNELQKDKMAEAYSEIGMKGERRRGKGHDGLYQGLSTATKDTYDALHMQALPPR
notes: The sheet names the CD70-knockout T cells that carry CD70-CAR-5A; also called CD70-CAR-5A
POS (% of cells in the CD70-PE positive gate): 74.9%

B4: CD70KO-CAR-5H (receptor)
chimeric antigen receptor chain: EVQLVESGGGMVQAGGSLRLSCAAPGKIFSFYFMGWYRQAPGKQRELVALITGDGRTNYADSVEGRFTISRDNAKNTVYLQMNSLKPEDTAVYYCYADVFARAGRDEYWGQGTQVSVSSTTTPAPRPPTPAPTIASQPLSLRPEACRPAAGGAVHTRGLDFACDIYIWAPLAGTCGVLLLSLVITLYCKRGRKKLLYIFKQPFMRPVQTTQEEDGCSCRFPEEEEGGCELRVKFSRSADAPAYKQGQNQLYNELNLGRREEYDVLDKRRGRDPEMGGKPRRKNPQEGLYNELQKDKMAEAYSEIGMKGERRRGKGHDGLYQGLSTATKDTYDALHMQALPPR
notes: The sheet names the CD70-knockout T cells that carry CD70-CAR-5H; also called CD70-CAR-5H
POS (% of cells in the CD70-PE positive gate): 58.9%

B5: CD70KO-CAR-5B (receptor)
chimeric antigen receptor chain: QVQLVESGGGLVQAGGSLRLSCAASGFTFDDYAIGWFRQAPGKEPEGVSCFRSSDGNIYYSDSVRGRFTISSDNAKNTVYLQMNRLKPEDTAVYYCAAYSVLLRPWVLCEGSYDYWGQGTQVTVSSTTTPAPRPPTPAPTIASQPLSLRPEACRPAAGGAVHTRGLDFACDIYIWAPLAGTCGVLLLSLVITLYCKRGRKKLLYIFKQPFMRPVQTTQEEDGCSCRFPEEEEGGCELRVKFSRSADAPAYKQGQNQLYNELNLGRREEYDVLDKRRGRDPEMGGKPRRKNPQEGLYNELQKDKMAEAYSEIGMKGERRRGKGHDGLYQGLSTATKDTYDALHMQALPPR
notes: The sheet names the CD70-knockout T cells that carry CD70-CAR-5B; also called CD70-CAR-5B
POS (% of cells in the CD70-PE positive gate): 57.8%

B8: CD70KO-CAR-3H (receptor)
chimeric antigen receptor chain: QLQLVESGGGLVQPGGSLRLSCAASGNILRFNAVGWYRQAPGKQRDLVAAMAGARTNYADSVEGRFTISGNNANNTVYLQMNSLKPEDTGVYYCGADRVYGPPYEYGGRGTQVTVLSTTTPAPRPPTPAPTIASQPLSLRPEACRPAAGGAVHTRGLDFACDIYIWAPLAGTCGVLLLSLVITLYCKRGRKKLLYIFKQPFMRPVQTTQEEDGCSCRFPEEEEGGCELRVKFSRSADAPAYKQGQNQLYNELNLGRREEYDVLDKRRGRDPEMGGKPRRKNPQEGLYNELQKDKMAEAYSEIGMKGERRRGKGHDGLYQGLSTATKDTYDALHMQALPPR
notes: The sheet names the CD70-knockout T cells that carry CD70-CAR-3H; also called CD70-CAR-3H
POS (% of cells in the CD70-PE positive gate): 70.8%

Continued, values first:

POS (% of cells in the CD70-PE positive gate): 78.4%
B6: CD70KO-CAR-7D (receptor)
chimeric antigen receptor chain: EVQLVESGGGLVQAGGSLRLSCAASGFTFDDYAIGWFRQAPGKEQEGVSCIRRSDGSTWYANSVKGRFTISNDNAKNTVYLQMNSLKPEDTAVYYCAVDRYGQSWHEGRGALDAWGQGTLVTVSSTTTPAPRPPTPAPTIASQPLSLRPEACRPAAGGAVHTRGLDFACDIYIWAPLAGTCGVLLLSLVITLYCKRGRKKLLYIFKQPFMRPVQTTQEEDGCSCRFPEEEEGGCELRVKFSRSADAPAYKQGQNQLYNELNLGRREEYDVLDKRRGRDPEMGGKPRRKNPQEGLYNELQKDKMAEAYSEIGMKGERRRGKGHDGLYQGLSTATKDTYDALHMQALPPR
notes: The sheet names the CD70-knockout T cells that carry CD70-CAR-7D; also called CD70-CAR-7D

POS (% of cells in the CD70-PE positive gate): 82.5%
B7: CD70KO-CAR-L1 (receptor)
chimeric antigen receptor chain: EVQVVESGGGLVQAGGSLRLSCAASGRTFSSYAMGWVRQAPGKDQEFVAAINWSDGSTYYADSVKGRFTIARDNAKNTAFLQMNSLKPEDTAVYYCAAGCCGVADAPLNALDAWGQGTLVTVSSTTTPAPRPPTPAPTIASQPLSLRPEACRPAAGGAVHTRGLDFACDIYIWAPLAGTCGVLLLSLVITLYCKRGRKKLLYIFKQPFMRPVQTTQEEDGCSCRFPEEEEGGCELRVKFSRSADAPAYKQGQNQLYNELNLGRREEYDVLDKRRGRDPEMGGKPRRKNPQEGLYNELQKDKMAEAYSEIGMKGERRRGKGHDGLYQGLSTATKDTYDALHMQALPPR
notes: The sheet names the CD70-knockout T cells that carry CD70-CAR-L1; also called CD70-CAR-L1

POS (% of cells in the CD70-PE positive gate): 62.6%
B9: CD70KO-CAR-L2 (receptor)
chimeric antigen receptor chain: EVQLVESGGGLVQAGGSLRLSCAASGFTVDDYVIGWFRQAPGKEHEGVSCISSNDGSTWYADSVKGRFTISSDNAKNTMYLQMNSLKPEDTAVYYCAAKYAPYGLEYWEGGMDYWGKGTLVTVSSTTTPAPRPPTPAPTIASQPLSLRPEACRPAAGGAVHTRGLDFACDIYIWAPLAGTCGVLLLSLVITLYCKRGRKKLLYIFKQPFMRPVQTTQEEDGCSCRFPEEEEGGCELRVKFSRSADAPAYKQGQNQLYNELNLGRREEYDVLDKRRGRDPEMGGKPRRKNPQEGLYNELQKDKMAEAYSEIGMKGERRRGKGHDGLYQGLSTATKDTYDALHMQALPPR
notes: The sheet names the CD70-knockout T cells that carry CD70-CAR-L2; also called CD70-CAR-L2
